Measured values: IntAct's records for PubMed 16326715

B1: Neutrophil cytosol factor 1 (Homo sapiens), P14598 (parent)
chain: MGDTFIRHIALLGFEKRFVPSQHYVYMFLVKWQDLSEKVVYRRFTEIYEFHKTLKEMFPIEAGAINPENRIIPHLPAPKWFDGQRAAENRQGTLTEYCSTLMSLPTKISRCPHLLDFFKVRPDDLKLPTDNQTKKPETYLMPKDGKSTATDITGPIILQTYRAIANYEKTSGSEMALSTGDVVEVVEKSESGWWFCQMKAKRGWIPASFLEPLDSPDETEDPEPNYAGEPYVAIKAYTAVEGDEVSLLEGEAVEVIHKLLDGWWVIRKDDVTGYFPSMYLQKSGQDVSQAQRQIKRGAPPRRSSIRNAHSIHQRSRKRLSQDAYRRNSVRFLQQRRRQARPGPQSPGSPLEEERQTQRSKPQPAVPPRPSADLILNRCSESTKRKLASAV
partner: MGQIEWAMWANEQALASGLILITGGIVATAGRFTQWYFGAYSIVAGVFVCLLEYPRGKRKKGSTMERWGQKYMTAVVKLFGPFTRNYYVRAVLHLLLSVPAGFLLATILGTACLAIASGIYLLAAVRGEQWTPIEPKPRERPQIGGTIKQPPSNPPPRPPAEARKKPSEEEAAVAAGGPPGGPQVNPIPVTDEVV
B2: Cytochrome b-245 light chain (Homo sapiens), P13498 (parent)
chain: B1 partner

Variants of: B1
Conditions: with cy24a_human CYBA, P13498
For MGDTFIRHIALLGFEKRFVPSQHYVYMFLVKWQDLSEKVVYRRFTEIYEFHKTLKEMFPIEAGAINPENRIIPHLPAPKWFDGQRAAENRQGTLTEYCSTLMSLPTKISRCPHLLDFFKVRPDDLKLPTDNQTKKPETYLMPKDGKSTATDITGPIILQTYRAAANYEKTSGSEMALSTGDVVEVVEKSESGWWFCQMKAKRGWIPASFLEPLDSPDETEDPEPNYAGEPYVAIKAYTAVEGDEVSLLEGEAVEVIHKLLDGWWVIRKDDVTGYFPSMYLQKSGQDVSQAQRQIKRGAPPRRSSIRNAHSIHQRSRKRLSQDAYRRNSVRFLQQRRRQARPGPQSPGSPLEEERQTQRSKPQPAVPPRPSADLILNRCSESTKRKLASAV [I164A], the “effect of a mutation on the interaction” value was “decreasing interaction”.
With MGDTFIRHIALLGFEKRFVPSQHYVYMFLVKWQDLSEKVVYRRFTEIYEFHKTLKEMFPIEAGAINPENRIIPHLPAPKWFDGQRAAENRQGTLTEYCSTLMSLPTKISRCPHLLDFFKVRPDDLKLPTDNQTKKPETYLMPKDGKSTATDITGPIILQTYRAIANYEKTSGSEMALSTGDVVEVVEKSESGWWFCQMKAKRGWIPASALEPLDSPDETEDPEPNYAGEPYVAIKAYTAVEGDEVSLLEGEAVEVIHKLLDGWWVIRKDDVTGYFPSMYLQKSGQDVSQAQRQIKRGAPPRRSSIRNAHSIHQRSRKRLSQDAYRRNSVRFLQQRRRQARPGPQSPGSPLEEERQTQRSKPQPAVPPRPSADLILNRCSESTKRKLASAV [F209A] the “effect of a mutation on the interaction” value was “decreasing interaction”.

Variants of: B2
Conditions: with ncf1_human NCF1, P14598
With MGQIEWAMWANEQALASGLILITGGIVATAGRFTQWYFGAYSIVAGVFVCLLEYPRGKRKKGSTMERWGQKYMTAVVKLFGPFTRNYYVRAVLHLLLSVPAGFLLATILGTACLAIASGIYLLAAVRGEQWTPIEPKPRERPQIGGTIKQPPSNPPPRPPAEGGKKPSEEEAAVAAGGPPGGPQVNPIPVTDEVV [A163G;R164G] the “effect of a mutation on the interaction” value was “decreasing interaction”.
